The source of these data is article PMC3871824, “In vitro binding of Sorghum bicolor transcription factors ABI4 and ABI5 to a conserved region of a GA 2-OXIDASE promoter: possible role of this interaction in the expression of seed dormancy”.

The target of data set [1] is T1, SbABI5 (rABI5) (Sorghum bicolor (inbred line IS9530), UniProt C5XSV4 1-346).
T1 sequence: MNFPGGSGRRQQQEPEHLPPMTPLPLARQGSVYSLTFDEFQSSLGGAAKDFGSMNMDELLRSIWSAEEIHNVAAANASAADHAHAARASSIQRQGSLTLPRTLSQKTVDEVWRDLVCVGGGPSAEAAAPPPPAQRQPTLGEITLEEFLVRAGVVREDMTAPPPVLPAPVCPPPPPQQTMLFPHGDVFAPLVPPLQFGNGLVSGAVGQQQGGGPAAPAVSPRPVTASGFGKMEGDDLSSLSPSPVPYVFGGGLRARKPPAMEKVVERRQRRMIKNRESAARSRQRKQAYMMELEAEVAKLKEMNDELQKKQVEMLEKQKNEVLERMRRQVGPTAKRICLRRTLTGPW
Briefly: competition; 200-600 ng vs 40 ng N1; no effect; 25 mM Tris-HCl pH 7.4, 30 mM KCl, 3 mM MgCl2, 0.5 mM EDTA, 14 mM 2-mercaptoethanol, 1 mM DTT, 10% glycerol, 0.05% NP-40, 10 ug/ml BSA, 50 ug/ml salmon sperm DNA, 40 ng probe, 30 min, room temperature. The conditions noted are these: protein: recombinant; tags: C-terminal His (pET24a); chain copies: 2; blunt.

Data set [2] concerns the target T2, SbABI4 (rABI4) (Sorghum bicolor (inbred line IS9530), UniProt A0A1B6P7N1 1-257). The description is as above. The conditions noted are these: protein: recombinant; tags: C-terminal His (pET24a); blunt.
For data set [3], the target named is T2, SbABI4 (rABI4). Briefly: EMSA; five complexes; 25 mM Tris-HCl pH 7.4, 30 mM KCl, 3 mM MgCl2, 0.5 mM EDTA, 14 mM 2-mercaptoethanol, 1 mM DTT, 10% glycerol, 0.05% NP-40, 10 ug/ml BSA, 50 ug/ml salmon sperm DNA, 40 ng probe, 30 min, room temperature. The following applies: protein: recombinant; tags: C-terminal His (pET24a); label: 5'-biotin on strand 1; blunt. (A gel shift assay detects complexes by their altered migration in electrophoresis.)

The target of data set [4] is T1, SbABI5 (rABI5). The data set is described as follows: EMSA; four complexes; 25 mM Tris-HCl pH 7.4, 30 mM KCl, 3 mM MgCl2, 0.5 mM EDTA, 14 mM 2-mercaptoethanol, 1 mM DTT, 10% glycerol, 0.05% NP-40, 10 ug/ml BSA, 50 ug/ml salmon sperm DNA, 40 ng probe, 30 min, room temperature. The conditions noted are these: protein: recombinant; tags: C-terminal His (pET24a); chain copies: 2; label: 5'-biotin on strand 1; blunt.

For data set [5], the target named is T2, SbABI4 (rABI4). Briefly: EMSA; additional retarded complex; 25 mM Tris-HCl pH 7.4, 30 mM KCl, 3 mM MgCl2, 0.5 mM EDTA, 14 mM 2-mercaptoethanol, 1 mM DTT, 10% glycerol, 0.05% NP-40, 10 ug/ml BSA, 50 ug/ml salmon sperm DNA, 40 ng probe, 30 min, room temperature. The following applies: protein: recombinant; tags: C-terminal His (pET24a); label: 5'-biotin on strand 1; blunt.

Data set [6] deals with T1, SbABI5 (rABI5). The data set is described as follows: EMSA; 25 mM Tris-HCl pH 7.4, 30 mM KCl, 3 mM MgCl2, 0.5 mM EDTA, 14 mM 2-mercaptoethanol, 1 mM DTT, 10% glycerol, 0.05% NP-40, 10 ug/ml BSA, 50 ug/ml salmon sperm DNA, 40 ng probe, 30 min, room temperature. The conditions noted are these: protein: recombinant; tags: C-terminal His (pET24a); chain copies: 2; label: 5'-biotin on strand 1; blunt.

T2 sequence (A0A1B6P7N1 entry or part of it): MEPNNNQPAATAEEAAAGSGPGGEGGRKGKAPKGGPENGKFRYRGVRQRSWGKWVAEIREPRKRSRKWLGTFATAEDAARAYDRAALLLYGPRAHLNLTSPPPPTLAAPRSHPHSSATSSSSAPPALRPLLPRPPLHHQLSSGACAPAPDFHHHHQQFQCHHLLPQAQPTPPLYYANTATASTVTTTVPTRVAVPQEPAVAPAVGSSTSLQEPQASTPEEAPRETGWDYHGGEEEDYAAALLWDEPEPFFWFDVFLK

B1: SbGAMyb non-specific competitor 183 bp (dsDNA)
DNA 1: TCTGGGAAGAACCAACAACCATCGGTCCGAAGTTCAAGTTCTTCTGCTGGCACACCTTGTGAGACTACTACGGTGGTTAGCCCAGAGTTTGATATGGGCCAGGAATATTGGGAAGAACAGCCTGGTTCTTTCCTCAGTGAATATGCTCATTTTAGTGGAAATTCTTTGACCGAATCCACTCCT
DNA 2: AGGAGTGGATTCGGTCAAAGAATTTCCACTAAAATGAGCATATTCACTGAGGAAAGAACCAGGCTGTTCTTCCCAATATTCCTGGCCCATATCAAACTCTGGGCTAACCACCGTAGTAGTCTCACAAGGTGTGCCAGCAGAAGAACTTGAACTTCGGACCGATGGTTGTTGGTTCTTCCCAGA
For B1, the binding result in the data set with SbABI5 (rABI5) [1] and in the data set with SbABI4 (rABI4) [2] was “no binding” in each case.

B2: AtEm6 promoter probe 186 bp (dsDNA)
DNA 1: AGTTAAAGAACACGCGGCGAAGAAGTACGGCCACTACCACGTTCAAAGTATACGTCAGCTAATAAAGTCAGACACGTGGCATGTCACCAAGAAAGAAGAGCATACGTATGACGTACCGATTGTCCCTGAGTCACCACGTCGAACATCCACGATGCAACACAACCAAAACGCCCTCCGGATTGA
DNA 2: TCAATCCGGAGGGCGTTTTGGTTGTGTTGCATCGTGGATGTTCGACGTGGTGACTCAGGGACAATCGGTACGTCATACGTATGCTCTTCTTTCTTGGTGACATGCCACGTGTCTGACTTTATTAGCTGACGTATACTTTGAACGTGGTAGTGGCCGTACTTCTTCGCCGCGTGTTCTTTAACT
Regarding B2, the binding result with SbABI4 (rABI4) [3] and in the data set with SbABI5 (rABI5) [4] was “binds” throughout.

B3: SbGA2ox3 probe a (intact ABRE and CE) (dsDNA)
DNA 1: GGGCGCCGTGGGAAAACTGCTATTGGCCGGCGTGCCATCGCCTCGTATCGTATGCGTCTCCCATGGAGCCATGCATGCAGCGCGGCGGGCCGACCTGCCACCGGTGGATCGCGTCCGGACACGTCGCGCCC
DNA 2: GGGCGCGACGTGTCCGGACGCGATCCACCGGTGGCAGGTCGGCCCGCCGCGCTGCATGCATGGCTCCATGGGAGACGCATACGATACGAGGCGATGGCACGCCGGCCAATAGCAGTTTTCCCACGGCGCCC
As for B3, the binding result with SbABI4 (rABI4) [5] and in the data set with SbABI5 (rABI5) [6] was “binds” each time.
